Experiment: yeast display, Sf9 membrane polyspecificity reagent, FACS + sequencing; frameworks hold sequencing errors
In short: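 Genes from sorted yeast were amplified by colony PCR, read by MiSeq 2 × 250 sequencing and filtered on CDR length. These cells carried a synthetic nanobody library in Saccharomyces cerevisiae BJ5465 and were sorted by FACS into low and high (top ~1%) gates on anti-HA and streptavidin fluorescence. Polyreactivity is labelled according to the gate of origin.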

## QVQLVESGGGLVQAGGSLRLSCAASGSIFNAYDMGWYRQAPGKERELVAGISSSDSTYYADSVKGRFTISRDNAKNTVYLQMNSLKPEDTAVYYCAADPVFAAAYIHLYGIYDSWGQGTQVTVSS
  polyreactivity (PSR sort gate): low polyreactivity

## QVQLVESGGGLVQAGGSLRLSCAASGSIFSPNARGWYRQAPGKEREVVAGISWSGDGTYYADSVKGRFTISRDYAKNTVYLQMNSLKPEDTAVYYCAARFGRYSHRYYYWGQGTQVTVSS
  polyreactivity (PSR sort gate): high polyreactivity

## QVQLVESGGGLVQAGGSLRLSCADSGSTFVSYAMGWYRQAPGKERELVAVAISWSGGNTYYADSVKGRFTISRDNAKNTVYLQMNSLKPEDTAVYYCAAYGTTGVYRGPGYDYWGQGTQVTVSS
  polyreactivity (PSR sort gate): low polyreactivity

## QVQLVESGGGLVQAGGSLRLSCAASGRTFEQYAMVWYRQAPGKERELVAAISGSGGSTFYADSVKGRFTISRDNAKNTVYLQMNSLKPEDTAVYYCNAPGDGYLYDHTYDYGGQGTQVTVSS
  polyreactivity (PSR sort gate): low polyreactivity

## QVQLVESGGGLVQAGGSLRLSCAASGRTFEQYSMGWYRQAPGKERELVAAISGSGGSTFYADSVKGRFTISRDNAKNTVYLQMNSLKPEDTAVYYCNAPGDGYLYDHTYDYWGQGTQVTVSS
  polyreactivity (PSR sort gate): low polyreactivity

## QDQLVESGGGLVQAGGSLRLSCAASGRIFRSYAMGWYRQAPGKERELVAAINTGGITYYADSVKGRFTISRDNAKNTVYLQMNSLKPEDTAVYYCNTYILSRMNYWGQCTQVTVSS
  polyreactivity (PSR sort gate): high polyreactivity

## QVQLVESGGGFVQAGGSLRLSCAASGFTFTSYAMGWYRQAPGKEREFVAAIRRSGSGTNYADSVKGRFTISRDNAKNTVYLQLNSLKPEDTAVYYCAAEQWGWYWYDYWGQGTQVTVSS
  polyreactivity (PSR sort gate): high polyreactivity

## QVQLVESGGGLVQAGGSLRLSCAASGYTFPQYAMRWYRQAPGKERELVAAITRRGGSTYYADSVKGRFTISRDNAKNTVYLQMNSLNPEDTAVYYGSARYYWGQGTQVTVSS
  polyreactivity (PSR sort gate): high polyreactivity

## QVQLVESGGGLVQAGGSLRLSCAASGSIFAWYAMGWYRQAPGKERELVATITWSGGSTYYADSVKGRFTISRDNAKNTVYLQMNSLKPEDTAVYYCAAEVVGICYDLWYQGDYWGQGTQVTVSS
  polyreactivity (PSR sort gate): low polyreactivity

## QVQLVESGGGLVQAGGSLRLSCAASGRTFSAYAMGWYRQAPGKEREFVAAITFNTGSTYYADSVKGRFTISRDNAKNTVYLQMNSLKPEDTAVYYCAAALVGSVGYKGFDGFDYWGQGTQVTVSS
  polyreactivity (PSR sort gate): low polyreactivity

## QGQLVESGGGLVQAGGSLRLSCAASAFIFDDNTMGWYRQAPGKERELGAAISYSAGSTYYADSVKGRFTISRDNAKNTVYLQMNSLKPEDTAVYSCAAQHYWVTSYLSSYDYWGQGTQVTLSS
  polyreactivity (PSR sort gate): low polyreactivity

## QVQLVESGGGLVQAGGSLRLSCAASGFTFDYYNMGWYRQAPGKERELVAAITSGASTNYADSVKGRFTISRDNAKNTVYLQMNSLKPEDTAVYYCAAVLAGGVYWVVHYDYWGQGTQVTVSS
  polyreactivity (PSR sort gate): low polyreactivity

## QVHLVESGGGIVQAGGILRLSCAASGNTFYENVMGWYRQTPGKEREFVAAITYIGGNTYYADSVKGRFTISRDNAKNTVYLQMNSLKPEDTAVYYCAAEWDWPTYYTYYWYFSYDYWGQGTQVTVSS
  polyreactivity (PSR sort gate): low polyreactivity

## QVQLVESGGGLVQAGGSLRLSCAASGRIFVFNAMGWYRQAPGKERELVATIDRGGSTNYADSVKGRFTISRDNAKNTVYLQMNSLKPEDTAVYYCAAGVVGKRSRTGYYWGQGTQVTVSS
  polyreactivity (PSR sort gate): low polyreactivity

## QVQLVESGGGLVQAGGSLRLRCAASGFTLLWNSMGWYRQAPGKEREFVAVISSGGSTNYADSVKGRFTISRDNAKNTVYLQMNSLKPEDTAVYYCATRRPSSSSAAAWFYYWGQGTQVTVSS
  polyreactivity (PSR sort gate): low polyreactivity

## QVQLVESGGGLVQAGGSLRLSCAASGGIFYGNVMGWYRQAPGKERQLVADITSVGSTYYADSVKGRFTFSRDNAKYTVYIQMNSLKPEDTAVYYCAAEPDHVAESHSGYDYWGQGTLVTVSS
  polyreactivity (PSR sort gate): low polyreactivity

## QVQLVESGGGLVQAGGSLRLSCSASGFIFGTNTMGWYRQAPGKEWELVAAITSVGSTNYADSVKGRFTISRDNAKNTVYLQMNSLKPEDTAVYYCPATLYYQYGGDYWGQGTQVTVSS
  polyreactivity (PSR sort gate): low polyreactivity

## QVQLVESGGGLVQAGGSLRLSCADSGSISRNAMGWYRQAPGKERELVAGISQSGGRTYYADSVKGRFTISRDNAKKTVYLQMNSLKPEDSAVYYCNADPRRGPGSVSSVRNNYWGQGTQVTVSS
  polyreactivity (PSR sort gate): high polyreactivity

## QVQLVESGGGLVQAGGSLRLSSAASGSIFITYAMGWYRQAPGKERELVAAIRDSGDRTYYADSVKGRFTISRDNAKNTVYLQMNSLKPEDTAVYYCNARWQEPLKYDYWGQGTQVTVSS
  polyreactivity (PSR sort gate): low polyreactivity

## QVQLVESGGGLVQAGGSLRLSCAASGRTFNGYAMGWSRQAPGKERELVAALTGSVGSTYYADSVKGRFTISRDNAKNPGELQLNSLKPDDTAVYYCATRWKATRARYDYWGQGTQVTVTS
  polyreactivity (PSR sort gate): high polyreactivity

## QVQLVESGGGLVQAGGSLRLSCAASGSTFGNYAMGWYRQAPGKERELVAAIRSRGGRTYYADSVKGRFTISRDYAKNTVYLQMNSLKPVDTAVYYCARDSRTGYYYWGQGTQVTVSS
  polyreactivity (PSR sort gate): high polyreactivity

## QVQLVESGGGLVQAGGSLRLSCAASGRTFYFYTMGWYRQAPGKERELVAAITLSGVSTYYADSVKGRFTISRDNAKITVYLQMNSLKPEDTAVYYCNAVYIRPGYRRYDYWGQGTQVTVSS
  polyreactivity (PSR sort gate): high polyreactivity

## QVQLVEAGGGLVQAGGSLRLSCAASGRTFLRYTMGWYRQAPGKEREWVASITRGGSTYYADSVKGRFTISRDNAKNTVYLQMNSLKPEDTAVYYCAAGKALLSRYYYWGQGTQVTVSS
  polyreactivity (PSR sort gate): high polyreactivity

## QVQLVESGGGLVQAGGSLRLSCAASGLTFRDNAMGWYRQAPGKERELVATINSGGSTDYADSVKGRFTISRDNAKNTVYLQMNILKPEDTAVYYCAVYREYYDRGWYSIFYWYDYWGQGTQVTVSS
  polyreactivity (PSR sort gate): low polyreactivity

## QVQLVESGGGLVQAGGSLRLSCAASGNTFVRYAMGWYRQAPGKERELVAAITRSGSSTYYADSVKGRFTISRDNAKNTVYLQMNSLKPEDTAVYYCAAYSWYYAGYDYWGQGTQVTVSS
  polyreactivity (PSR sort gate): high polyreactivity

## QVQLVESGGGLVQAGGSLRLSCAASGLTFTQYAMGWYRQAPGKERELVAAITSGGRTYYADSVKGRFTISRDNAKNTVYLQMNSLKPEDTAVYYCAADRRYVDAYHFGYWGQGTQVTVSS
  polyreactivity (PSR sort gate): high polyreactivity

## QVQIVESGGGLVQAGGSLRLSCAASGRIFNIYAMGWYRQAPGKERELVADIRWNGGSTYYADSVKGRFTISRDNAKNTVYLQMNSLKPEDTAVYYCAAARRRRFYDYYNAWYDVDYWGQGTQVTVSS
  polyreactivity (PSR sort gate): low polyreactivity

## QVQLVESGGGLVQAGGSLRLSCAASGSIFAWYGMGRYRQAPGIERELVAAITTAGSTNYADSVKGRFTISRDNAKNTVYLHMNSLKPEDTAVYYCATATPYVSLKDAHDYGGQGTQVTVSS
  polyreactivity (PSR sort gate): low polyreactivity

## QVQLVESGGGLVQAGGSLRLSCAASGSIFYYYGMGWYRQAPGKERELVAGISSRGGRTYYADSVKGRFTISRDNAKNTVYLQMNSLKPEDTAVYYCAADRYYYAYRYYPSGYWGQGTQVTVSS
  polyreactivity (PSR sort gate): low polyreactivity

## QVQLVESGGGLVQAGGSLRLSCAASGRIFWRNAMGWNRQAPGKERELVAAISSGGSTYYADSVKGRFTISRDNAKNTVYLQMNSLKPEDTAVYYCAARSSWRGGSYDHFERDYWGQGTQVTVSS
  polyreactivity (PSR sort gate): high polyreactivity

## QVQLVESGGGLVQAGGSLRLSCAASGSTFNWYAMGWYRQAPGKERELVASIRISGGSTYYADSVKGRFTISRDNAKNTVYLQMNSLKPEDTAVYYCNAKLFIRWFTYDYWGQGTQVTVSS
  polyreactivity (PSR sort gate): low polyreactivity

## QVQLVESGGGLVQAGGSLRLSCAASGFIFRYYDMGWYRQAPGKERELVAAISWRGGRTYYADSVKGRFTISRDNAKNTVYLQMNSLKPEDTAVYYCAAGFSLWTYPKPYGEDYWGQGTQVTVSS
  polyreactivity (PSR sort gate): high polyreactivity

## QVQLVESGGGLVHAGGSLRLSCAASGGIFPHNVMGWYRQAPGKEREMVAAITWSGGRTYYADSVKGRFTNSRDNAKNTVYFQLNSLKPEDTAVYYCAADPFYLTKSGGWGDYWGQGTQVTVSS
  polyreactivity (PSR sort gate): low polyreactivity

## QVQLVESGGGLVQAGGSLRLSCADSGRIIYKNAMGWYRQAPGKERELVAAITSSGGSTYYADSVKGRFTISRDNAKNTVYLQMNSLTPVDTAVYYCAAYAYVRFGKLNYWGQGTQVTVSS
  polyreactivity (PSR sort gate): low polyreactivity

## QVQLVESGGGLVQAGGSRRLSCAASGGIFNYYTMGWYRQATGKERELVAAINSSGGNTHYADSVKGRFTISRDNAKNTVYLQMYSLKPEDTAVYYCNADARSVWFYRVDYWGQGTQVTVSS
  polyreactivity (PSR sort gate): low polyreactivity

## QDQLVESGGGLVQAGGSLRLSCAASGRTFSINAMGWYRQAPGKERELVASISSRGTRTNYADSVKGRFTISRDNAKNTVYLQMNSLKPEDTGVYYCAADRYYPYYSAWREYEYWGQGTQVTVSS
  polyreactivity (PSR sort gate): high polyreactivity

## QVQLVESGGGLVQAGGSLRLSCAASGITFYEYTMGWYRQAPGKETELVAVIRKTGGSTYYADSVKGRFTISRDNAKNTVYLQMNSLKPEDTAVYYCNARYGGSGRVPRSYDYWGQGTQVTVSS
  polyreactivity (PSR sort gate): high polyreactivity

## QVQLVESGGGLVQAGGSLRLSCAASGRTFIYYAMGWYRQAPGKERELVAGISRNGGRTYYADSVKGRFTISRDNAKNTVYLQMNSLKPEDTAVYYCNAYPPSRHDYWGQGTQVTVSS
  polyreactivity (PSR sort gate): high polyreactivity

## QVQLVESGGGLVQAGGSLRLSCAASGSTFNTNTMGWYRQAPGKERELVAAISQSGTRTYYANSVKGRFTISRDNAKYTVYFQMNSLKPEDTAVYYCSADRQRYTSSSRKGLGYWGQGTQVTVSS
  polyreactivity (PSR sort gate): high polyreactivity

## QVQLVESGGGLVQAGGSLRLAVLPPVLPSTLNDMGWYRQAPGKERELVAAITRGGSTNYADSVKGRFTISRDNAKNTVYLQMNSQKPEDTAVYYCAAPYAGWRDGGDNWGQGTQVTVSS
  polyreactivity (PSR sort gate): low polyreactivity

## QVQLVESGGGLVQAGGSLRLSCAASGRTCGKYAMGWYRQAPGKERELVATISRSGGSTYYADSVKGRFTISRDTAKYTVYLQMNSLKPEDTAVYYCNAVTSRYIWPPVLDRYHYWGQGTQVTLSS
  polyreactivity (PSR sort gate): high polyreactivity

## QVQLVESGGGLVQAGGSLRLSCAASGSIFDVYAMGWYRQAPGKERELVAAITFDGGSTYYADSVKGRFTISRDNAKNTVYLQMNSLKPEDTAVYDCNAEFYFLWDWQSFDYWGQGTQVTVSS
  polyreactivity (PSR sort gate): high polyreactivity

## QVQLVESGGGLVQAGGSLRLSCAASGSIFTVYAMGWYRPAPGKEREFVAAITGSGGRTYYADSVKGRFTISRDNAKNTVYLQMNSLKPEDTAVYYCAATTRPGYRYEGDYWGQGTQVTVSS
  polyreactivity (PSR sort gate): low polyreactivity
